Source: paper PMC2756588

T1: Sla1-2, P32790
T1 sequence (P32790 60-140, looked up): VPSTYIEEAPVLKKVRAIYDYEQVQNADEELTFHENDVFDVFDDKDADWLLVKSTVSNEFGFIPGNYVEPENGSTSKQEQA

T2: Nbp2, Q12163
T2 sequence (Q12163 103-180, looked up): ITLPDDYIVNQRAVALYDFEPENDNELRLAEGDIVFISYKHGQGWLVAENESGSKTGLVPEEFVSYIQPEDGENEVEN

T3: Boi1, P38041
T3 sequence (P38041 1-86, looked up): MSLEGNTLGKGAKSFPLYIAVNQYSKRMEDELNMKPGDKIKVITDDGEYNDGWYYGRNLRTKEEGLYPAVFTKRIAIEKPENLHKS

T4: Lsb4, P32793
T4 sequence (P32793 402-468, looked up): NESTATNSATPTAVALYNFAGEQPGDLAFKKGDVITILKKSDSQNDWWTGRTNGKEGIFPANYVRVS

T5: Pin3, Q06449
T5 sequence (Q06449 53-122, looked up): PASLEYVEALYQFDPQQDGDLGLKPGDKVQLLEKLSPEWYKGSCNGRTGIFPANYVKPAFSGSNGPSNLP

T6: Fus1, P11710
T6 sequence (P11710 432-512, looked up): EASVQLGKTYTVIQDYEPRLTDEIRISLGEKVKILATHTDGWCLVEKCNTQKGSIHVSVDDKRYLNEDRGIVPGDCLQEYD

T7: Hof1, Q05080
T7 sequence (Q05080 590-669, looked up): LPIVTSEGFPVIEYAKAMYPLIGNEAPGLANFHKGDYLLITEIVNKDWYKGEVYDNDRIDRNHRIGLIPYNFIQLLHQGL

T8: Myo5, Q04439
T8 sequence (Q04439 1072-1160, looked up): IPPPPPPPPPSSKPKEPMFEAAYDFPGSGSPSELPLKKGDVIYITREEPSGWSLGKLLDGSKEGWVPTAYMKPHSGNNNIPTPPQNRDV

T9: Abp1, P15891
T9 sequence (P15891 535-592, looked up): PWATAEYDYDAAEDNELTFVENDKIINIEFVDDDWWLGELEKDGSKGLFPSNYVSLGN

T10: Hse1, P38753
T10 sequence (P38753 208-285, looked up): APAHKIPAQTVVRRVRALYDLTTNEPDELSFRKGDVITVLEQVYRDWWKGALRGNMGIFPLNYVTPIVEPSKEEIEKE

T11: Boi2, P39969
T11 sequence (P39969 32-116, looked up): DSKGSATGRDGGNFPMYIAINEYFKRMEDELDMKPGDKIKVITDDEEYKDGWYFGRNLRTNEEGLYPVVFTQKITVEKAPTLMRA

T12: Bbc1, P47068
T12 sequence (P47068 1-78, looked up): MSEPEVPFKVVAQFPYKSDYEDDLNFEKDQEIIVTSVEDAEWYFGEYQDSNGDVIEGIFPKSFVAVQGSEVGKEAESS

T13: Bzz1-1, P38822
T13 sequence (P38822 478-572, looked up): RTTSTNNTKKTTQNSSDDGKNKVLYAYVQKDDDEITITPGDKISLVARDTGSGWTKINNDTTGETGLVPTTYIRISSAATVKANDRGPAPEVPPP

T14: Bud14, P27637
T14 sequence (P27637 247-328, looked up): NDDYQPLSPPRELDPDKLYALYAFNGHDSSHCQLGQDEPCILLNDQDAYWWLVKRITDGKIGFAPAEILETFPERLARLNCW

T15: Bzz1-2, P38822
T15 sequence (P38822 568-633, looked up): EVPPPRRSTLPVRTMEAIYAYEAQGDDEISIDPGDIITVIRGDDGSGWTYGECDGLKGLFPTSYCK

T16: Lsb3, P43603
T16 sequence (P43603 385-451, looked up): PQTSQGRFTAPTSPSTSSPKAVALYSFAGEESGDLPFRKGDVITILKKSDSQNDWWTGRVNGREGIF

T17: Sla1-3, P32790
T17 sequence (P32790 344-424, looked up): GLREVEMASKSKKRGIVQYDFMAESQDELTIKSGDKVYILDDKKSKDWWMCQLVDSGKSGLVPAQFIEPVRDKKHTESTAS

T18: Pex13, P80667
T18 sequence (P80667 295-386, looked up): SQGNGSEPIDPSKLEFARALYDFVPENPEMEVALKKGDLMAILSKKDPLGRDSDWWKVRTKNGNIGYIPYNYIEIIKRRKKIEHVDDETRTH

T19: Cyk3, Q07533
T19 sequence (Q07533 1-83, looked up): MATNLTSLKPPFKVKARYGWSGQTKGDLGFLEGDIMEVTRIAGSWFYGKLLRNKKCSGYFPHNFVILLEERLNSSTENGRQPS

T20: Cdc25, P04821
T20 sequence (P04821 50-136, looked up): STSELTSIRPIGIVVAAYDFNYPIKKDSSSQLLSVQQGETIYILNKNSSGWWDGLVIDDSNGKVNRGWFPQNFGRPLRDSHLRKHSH

T21: Lsb1, P53281
T21 sequence (P53281 45-122, looked up): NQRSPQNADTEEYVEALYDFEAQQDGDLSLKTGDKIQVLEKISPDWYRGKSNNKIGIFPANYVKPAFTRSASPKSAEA

B1: unnamed (peptide)
chain: PLRRTVMSLPGNHDI
B2: unnamed (peptide)
chain: NFLRLLIGLPSQNEL
B3: unnamed (peptide)
chain: NNQRRKPLLLNIGDH
B4: unnamed (peptide)
chain: NPNRRAPRRPLSTQH
B5: unnamed (peptide)
chain: NHSRSLFSLPGNQQS
B6: unnamed (peptide)
chain: ALFRLSFFFPLDPAY

Columns and labels:
Experiment in all cases: SPOT array
Sla1-2, P32790 = target: T1, Sla1-2, P32790; settings: median of control spots 712
Nbp2, Q12163 = target: T2, Nbp2, Q12163; settings: median of control spots 357
Bem1-2, P29366 = settings: median of control spots 4347
Sequence of Bem1-2, P29366 (P29366 139-227): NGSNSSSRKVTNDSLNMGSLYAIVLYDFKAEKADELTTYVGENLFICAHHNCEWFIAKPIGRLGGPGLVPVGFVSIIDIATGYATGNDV

Boi1, P38041 = target: T3, Boi1, P38041; settings: median of control spots 1162
Myo3, P36006 = settings: median of control spots 468
Lsb4, P32793 = target: T4, Lsb4, P32793; settings: median of control spots 397
Pin3, Q06449 = target: T5, Pin3, Q06449; settings: median of control spots 2171
Fus1, P11710 = target: T6, Fus1, P11710; settings: median of control spots 1200
Hof1, Q05080 = target: T7, Hof1, Q05080; settings: median of control spots 4086
Myo5, Q04439 = target: T8, Myo5, Q04439; settings: median of control spots 471
Abp1, P15891 = target: T9, Abp1, P15891; settings: median of control spots 935
Hse1, P38753 = target: T10, Hse1, P38753; settings: median of control spots 1727
Boi2, P39969 = target: T11, Boi2, P39969; settings: median of control spots 1161
GST = settings: median of control spots 978
Bbc1, P47068 = target: T12, Bbc1, P47068; settings: median of control spots 796
Bzz1-1, P38822 = target: T13, Bzz1-1, P38822; settings: median of control spots 4446
Bud14, P27637 = target: T14, Bud14, P27637; settings: median of control spots 956
Bem1-1, P29366 = settings: median of control spots 4282
Sequence of Bem1-1, P29366 (P29366 55-141): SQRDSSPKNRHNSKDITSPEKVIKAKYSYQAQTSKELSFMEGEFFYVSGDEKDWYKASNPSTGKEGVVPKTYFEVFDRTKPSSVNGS

Bzz1-2, P38822 = target: T15, Bzz1-2, P38822; settings: median of control spots 4538
Lsb3, P43603 = target: T16, Lsb3, P43603; settings: median of control spots 406
Sho1, P40073 = settings: median of control spots 1148
Sequence of Sho1, P40073 (P40073 287-367): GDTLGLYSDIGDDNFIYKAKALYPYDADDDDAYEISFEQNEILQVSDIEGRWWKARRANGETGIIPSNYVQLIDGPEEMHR

Sla1-3, P32790 = target: T17, Sla1-3, P32790; settings: median of control spots 5475
Pex13, P80667 = target: T18, Pex13, P80667; settings: median of control spots 1341
Cyk3, Q07533 = target: T19, Cyk3, Q07533; settings: median of control spots 1451
Cdc25, P04821 = target: T20, Cdc25, P04821; settings: median of control spots 969
Rvs167, P39743 = settings: median of control spots 2707
Sequence of Rvs167, P39743 (P39743 419-482): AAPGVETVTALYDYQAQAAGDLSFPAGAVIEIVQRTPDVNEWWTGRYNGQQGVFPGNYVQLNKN

Lsb1, P53281 = target: T21, Lsb1, P53281; settings: median of control spots 388

Row | Binder | SPOT intensity (Sla1-2, P32790) | SPOT intensity (Nbp2, Q12163) | SPOT intensity (Bem1-2, P29366) | SPOT intensity (Boi1, P38041) | SPOT intensity (Myo3, P36006) | SPOT intensity (Lsb4, P32793) | SPOT intensity (Pin3, Q06449) | SPOT intensity (Fus1, P11710) | SPOT intensity (Hof1, Q05080) | SPOT intensity (Myo5, Q04439) | SPOT intensity (Abp1, P15891) | SPOT intensity (Hse1, P38753) | SPOT intensity (Boi2, P39969) | SPOT intensity (GST) | SPOT intensity (Bbc1, P47068) | SPOT intensity (Bzz1-1, P38822) | SPOT intensity (Bud14, P27637) | SPOT intensity (Bem1-1, P29366) | SPOT intensity (Bzz1-2, P38822) | SPOT intensity (Lsb3, P43603) | further results
1 | B1 | 3 | 18 | 6 | 0 | 23 | 0 | 72 | 1 | 0 | 12 | 24 | 1 | 0 | 0 | 0 | 1 | 2 | 1 | 1 | 0 | SPOT intensity (Sho1, P40073): 12; SPOT intensity (Sla1-3, P32790): 0; SPOT intensity (Pex13, P80667): 31; SPOT intensity (Cyk3, Q07533): 0; SPOT intensity (Cdc25, P04821): 16; SPOT intensity (Rvs167, P39743): 0; SPOT intensity (Lsb1, P53281): 75
2 | B2 | 0 | 84 | 0 | 122 | 10 | 0 | 15 | 243 | 3 | 0 | 55 | 10 | 6 | 0 | 156 | 2 | 22 | 1 | 0 | 0 | SPOT intensity (Sho1, P40073): 93; SPOT intensity (Sla1-3, P32790): 0; SPOT intensity (Pex13, P80667): 47; SPOT intensity (Cyk3, Q07533): 9; SPOT intensity (Cdc25, P04821): 354; SPOT intensity (Rvs167, P39743): 0; SPOT intensity (Lsb1, P53281): 2
3 | B3 | 0 | 42 | 25 | 5 | 0 | 0 | 0 | 28 | 18 | 0 | 56 | 50 | 1 | 0 | 11 | 0 | 17 | 0 | 5 | 0 | SPOT intensity (Sho1, P40073): 79; SPOT intensity (Sla1-3, P32790): 138; SPOT intensity (Pex13, P80667): 0; SPOT intensity (Cyk3, Q07533): 1; SPOT intensity (Cdc25, P04821): 216; SPOT intensity (Rvs167, P39743): 0; SPOT intensity (Lsb1, P53281): 0
4 | B4 | 4 | 626 | 476 | 28 | 46 | 18 | 4 | 59 | 70 | 0 | 151 | 113 | 0 | 0 | 294 | 0 | 17 | 3 | 56 | 2 | SPOT intensity (Sho1, P40073): 267; SPOT intensity (Sla1-3, P32790): 607; SPOT intensity (Pex13, P80667): 27; SPOT intensity (Cyk3, Q07533): 3; SPOT intensity (Cdc25, P04821): 221; SPOT intensity (Rvs167, P39743): 0; SPOT intensity (Lsb1, P53281): 52
5 | B5 | 1 | 77 | 353 | 7 | 13 | 0 | 16 | 653 | 364 | 1 | 53 | 114 | 2 | 2 | 35 | 2 | 7 | 3 | 19 | 0 | SPOT intensity (Sho1, P40073): 141; SPOT intensity (Sla1-3, P32790): 124; SPOT intensity (Pex13, P80667): 36; SPOT intensity (Cyk3, Q07533): 0; SPOT intensity (Cdc25, P04821): 333; SPOT intensity (Rvs167, P39743): 0; SPOT intensity (Lsb1, P53281): 46
6 | B6 | 4 | 283 | 27 | 192 | 44 | 21 | 39 | 628 | 33 | 17 | 142 | 116 | 17 | 1 | 218 | 0 | 12 | 0 | 31 | 16 | SPOT intensity (Sho1, P40073): 168; SPOT intensity (Sla1-3, P32790): 54; SPOT intensity (Pex13, P80667): 93; SPOT intensity (Cyk3, Q07533): 13; SPOT intensity (Cdc25, P04821): 359; SPOT intensity (Rvs167, P39743): 8; SPOT intensity (Lsb1, P53281): 49
